According to the supplement of paper PMC12042874:
± gives the uncertainty stated by the source.

Experiment: amyloid nucleation score (Sup35N fusion, yeast selection) (log enrichment); library NNK1; higher = more nucleation; inactive = no reads after selection
Outline: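 On medium lacking adenine and uracil, psi-negative yeast expressing peptides of 20 random codons fused to Sup35N were grown 7 days at 30°C after a 24-hour induction with 100 μM copper sulfate. Illumina sequencing of input and output plasmid inserts gave the reads, and sequences under 100 input reads were excluded. The nucleation score is the DiMSum log enrichment of output over input reads, centred on the mode score of non-aggregating sequences.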

Point of comparison: YGNKTYFAPR, amyloid nucleation score 0.557 ± 0.51. Against it:
- VYEYFRLAGGAIQIAGIPVA — within error, -0.002 ± 0.72
- VYFGRISLWLNMH — within error, -0.449 ± 0.59
- VYGVRAIR — within error, 0.503 ± 0.61
- VYHIYDG — lower, -0.662 ± 0.43
- VYLFSVLVDVSRMSNGMLTR — within error, -0.211 ± 1.2
- VYLKKSLFL — within error, -0.484 ± 0.9
- VYMSIRYRGSDNIRICVSVR — within error, -0.13 ± 0.43
- VYSQINSRHWEFMDLELSLG — within error, 0.147 ± 0.93
- VYSYYLLLGLW — higher, 3.66 ± 0.084
- VYVVGLFQLVSITFLCRITV — within error, 0.153 ± 0.22
- VYYYVNTVCWSARFHVGSGR — within error, -0.561 ± 0.74
- WAIFLVR — within error, -2.31 ± 2.4
- WASGRGSSVRIKQLPHDRQQ — lower, -0.779 ± 0.43
- WAVGVRSQLWVARQAKVMGG — within error, 0.741 ± 0.69
- WAYVAALRGYCYVGGRYLYT — within error, -0.91 ± 1.2
- WCCGLCVLMQLNTVMLSKGL — higher, 5.33 ± 0.066
- WCTATGVSRFTMGIKTCHCL — within error, 0.738 ± 0.38
- WCTTVRIRLYGSSIWRLFGA — within error, 0.76 ± 0.45
- WCVWFVQISCMVRVGAKLNS — within error, 0.184 ± 0.38
- WCYVYRSRRVSMTSWVLRTQ — within error, 0.19 ± 0.26
- WDAHGDIVKG — within error, 0.877 ± 1
- WDALLPLPAEFAYRATTMHA — within error, 0.444 ± 1.1
- WDKFC — lower, -1.16 ± 0.88
- WDKWI — within error, 0.418 ± 0.49
- WDTTVWMIPFNARVFFVGLC — within error, -0.083 ± 0.35
- WETWYSVCYAIEIRSYKIRV — lower, -1.3 ± 1
- WFEVNSACQLSNLGGLTEFR — within error, -0.417 ± 1.4
- WFFVDSVYIRNKFSLEKGSA — higher, 7.494 ± 0.052
- WFTAFARK — higher, 3.41 ± 0.11
- WFVNWWEYVL — within error, 0.042 ± 0.9
- WGDLHRMVMISREVEPVSNI — within error, -0.361 ± 0.78
- WGMIWCTIYGSVSNNNINLV — higher, 4.2 ± 0.053
- WGTPLMV — within error, 0.31 ± 0.63
- WHELRMCIVMDFLLMLQKMI — higher, 1.79 ± 0.44
- WIFIGTIPILLIGDRRSANV — higher, 6.35 ± 0.066
- WIFQY — within error, 1.43 ± 0.72
- WINKYYDLN — within error, 0.472 ± 0.42
- WITTMHNLHELNHRGPPPKL — within error, -0.972 ± 1.8
- WIVCCMWVYVLSLQL — lower, -1.06 ± 0.4
- WIVHCVEFALYGLGF — within error, 1.33 ± 0.79
- WIWYFLGRGGYVACRSTKVW — within error, 0.016 ± 1.2
- WKDRPRVCLFMLLNENGRQM — within error, -0.831 ± 1.2
- WKFALSLTRSDWAGHGPGHE — higher, 2.02 ± 0.16
- WKGLRYLNFYFTE — higher, 4.52 ± 0.059
- WKLPWALSRPVKYRYHEVGR — within error, 0.225 ± 0.43
- WLDAVGMAAG — within error, -0.989 ± 2.7
- WLGVNDSLGFICEAVGWYGW — within error, 0.604 ± 0.63
- WLGYMDMDNGARQNQYSETG — within error, -0.942 ± 1.4
- WLIQE — within error, 1.24 ± 0.71
- WLLREIERMDLGDWQLELNI — within error, -0.707 ± 0.83
- WLSGYKSQMVK — within error, -0.291 ± 0.78
- WLSSLARIWSRQMREYNS — within error, 0.64 ± 0.44
- WLTKSEN — within error, -0.151 ± 0.27
- WLVLTMS — within error, 0.086 ± 0.36
- WMTHWVLSYTTNLLIWVHGW — within error, 0.005 ± 1.2
- WMTTEIRRAIIEIRSVLWTS — within error, 0.33 ± 0.55
- WMVSSVIRARGL — higher, 3.23 ± 0.12
- WMYDSLDTSMTLANSHLQTL — within error, -0.098 ± 0.51
- WNFLFSCLMLGSSWMACDWQ — within error, -0.305 ± 0.76
- WNIGYNFVSDSLPPRNYFVE — within error, -0.198 ± 0.37
- WNISSTFGYGNHWLG — within error, 0.816 ± 0.52
- WNMFGS — within error, 0.848 ± 0.29
- WNNVGNTCMEPRSSLGCTLR — within error, 0.147 ± 0.51
- WNQIAYNYRMLMLYFVTHYW — within error, 0.327 ± 0.5
- WNRFRIMQLDITG — within error, 0.103 ± 0.22
- WNSFTELRAHMLYHLKKIII — higher, 1.72 ± 0.22
- WNTMWRHLGIYFKY — within error, 0.249 ± 0.38
- WPCPVVRFLPWKNYISGYSF — within error, 0.392 ± 0.64
- WPGFLSRWIRLRLDWSHEV — lower, -1.06 ± 1.1
- WQCDLNDLLVCTFSMLGYGR — within error, -1.05 ± 1.7
- WQFYTVL — within error, -0.246 ± 0.31
- WQLLKKCP — lower, -0.576 ± 0.41
- WQLYIEYFE — within error, 0.128 ± 0.36
- WREGDI — within error, -0.294 ± 1.2
- WREYRLWDEG — within error, -0.208 ± 0.36
- WRGGKRHVAIFSISYSGTN — within error, 0.9 ± 0.57
- WRGLPSNG — within error, 0.024 ± 0.36
- WRILYRC — within error, 0.41 ± 0.34
- WRLRCLRELV — within error, -0.542 ± 0.65
- WRQWKTLTARLTAMKA — within error, -0.178 ± 0.33
- WRSSHINLGGIFRLSHTIYC — within error, -0.16 ± 0.38
- WRSSHNDKMSY — lower, -0.889 ± 0.46
- WRSVPRASFRNWSLWDPLYT — within error, 0.453 ± 0.29
- WRVHSNKRKLGSCLLTGTIF — within error, 0.656 ± 0.5
- WSCLSSLRDLGNGGYMM — within error, 0.05 ± 0.62
- WSKTSDDSVWWTWTDGIMFV — higher, 1.92 ± 0.46
- WSLNERQNMLHLHRLTASLG — within error, -0.088 ± 0.88
- WSNTCRASYFRPCGCG — within error, 0.391 ± 0.39
- WSPEMNVVKFTLFYNRSSRF — higher, 7.13 ± 0.078
- WSRTNMIYNPSVGAIYRV — within error, -0.021 ± 0.41
- WSVLCSFRSSSNQAFVFRVQ — lower, -0.827 ± 0.77
- WTFGLGSGVSGVSLERGPLG — within error, -0.622 ± 1.7
- WTIWVKDSLVPVCTSF — within error, -1.03 ± 1.2
- WTMNLLA — within error, -0.048 ± 0.16
- WTQAPDSAVGDGWGSNGSEA — within error, 0.013 ± 0.47
- WTSMGTHTFSVRNRSGPHNG — within error, 1.22 ± 0.62
- WTSSVFSIAHPVRYVRFYAV — within error, 0.307 ± 0.54
- WTVMVNICLGHCRVLSQLVP — higher, 1.79 ± 0.24
- WVAVRDMKGYRSRKKGQSWH — within error, 0.199 ± 0.5
- WVHVCGGHCNWLICSMASNG — higher, 7.889 ± 0.061
- WVTVPNTKKTNVLFGQWTIV — lower, -0.379 ± 0.39
- WVVIR — within error, -0.369 ± 1.5
- WWNIEEM — lower, -0.271 ± 0.24
- WYEWSPFSSTWRSSIVLFNL — within error, 0.417 ± 0.56
- YACESGMEIMHYRHMSGGVV — within error, 0.732 ± 1
- YAEVGGLYSTSGVRRKNGGR — within error, 0.346 ± 0.32
- YAFIG — within error, -1.07 ± 1.5
- YAFWFLCGYALP — higher, 2.92 ± 0.12
- YAINMVYYV — within error, 1.16 ± 0.29
- YAITRSAVICSNLALNMEC — higher, 2.09 ± 0.23
- YAKVLTK — within error, -0.104 ± 0.33
- YALRFFDDYESAAGSVR — within error, -0.454 ± 0.66
- YARGMCWVRVWLNVQVSAWS — within error, 0.398 ± 0.53
- YARWVGVSKVRNTQICNSMR — within error, -0.543 ± 0.79
- YAYYLSDRVCFD — within error, 0.303 ± 0.4
- YCDRDLKNKVLSNV — within error, -0.132 ± 0.42
- YCIGYGKICSYMRIVSSGLQ — within error, 0.901 ± 0.24
- YCIPTVRVFL — within error, 0.575 ± 0.66
- YCLQRQRRKGRSRSSMPEDE — within error, 1.52 ± 0.52
- YCNGSLLRLAYMFGSGVSPR — within error, 0.935 ± 0.46
- YCTLRESKPPMDGSM — within error, -0.898 ± 1.7
- YCTTAIGSKSLVDIWHAGCS — within error, -0.412 ± 1.2
- YCYEQVDSV — within error, 0.154 ± 0.42
- YDFTDFPSPTFRYFVLIGNA — within error, 0.333 ± 0.54
- YDLTSFGFSVIVCSDDTRSG — within error, -0.043 ± 0.75
- YDRAWMLRPTLLWLTQTVVR — higher, 2.21 ± 0.13
- YDVLEDSHELMMCFCVRGHW — within error, -0.155 ± 1
- YFAVDDNYLHIQTSVRSRCS — within error, 0.036 ± 0.41
- YFAVWSSRDTFRFYLILINP — lower, -0.427 ± 0.33
- YFEFSIHSQRYIQWSHYLVL — within error, -1.05 ± 1.7
- YFGLRSVKRWQT — within error, -0.106 ± 0.52
- YFGSLYERGRIIGRRVMR — within error, 0.267 ± 0.32
- YFIARREQFWIMLPGELALE — within error, -0.756 ± 1.7
- YFIFFLSNVFASSVIILMYM — within error, -0.071 ± 0.36
- YFISVVFASGKGW — within error, -0.387 ± 0.8
- YFLLPYADRIHHLSVNCFWM — within error, -0.008 ± 0.93
- YFMFSLCSYSNYWLRWGFV — within error, 0.121 ± 0.22
- YFPGVSRGQVDEPVYLCCQR — within error, 0.068 ± 0.57
- YFRSSGGAFFGNLDVCGNYV — within error, 0.124 ± 0.48
- YFSFIWMYKMDIMTI — within error, -0.117 ± 0.35
- YFSSYFV — within error, 0.118 ± 0.41
- YFSVGSCNRYLHWTVQ — higher, 5.06 ± 0.075
- YFSWLFPFIDLSRVSASMPT — higher, 2.69 ± 0.2
- YFTLFDSRKTVLRSENNTRW — within error, 0.578 ± 0.32
- YFVHQNKHRTKIIILGLGLI — within error, 1.35 ± 0.5
- YFVLALWFIGCYECLYLWLC — within error, 1.21 ± 0.59
- YFVMGLIFGLKRLLVLAIRR — lower, -0.53 ± 0.3
- YFWMIPMTGEVHNCPDLAPK — within error, 0.386 ± 0.33
- YGASI — within error, 0.136 ± 0.47
- YGDDRWYIRSIIEDCQLGGF — lower, -0.716 ± 0.5
- YGFLNPTSSR — within error, 0.632 ± 0.5
- YGLIGM — within error, 0.24 ± 0.37
- YGSGPNDWLYVWGNSLWQKV — within error, -0.106 ± 0.66
- YGVCT — within error, 0.49 ± 0.22
- YGVVYNIWHFIEMKGDYTHA — higher, 6.869 ± 0.055
- YHDVRLMVRVHVFWLF — within error, 1.03 ± 0.37
- YHIRVAWQFVGADI — within error, -0.535 ± 1
- YHPRTSYFCDVVFRGPERGN — higher, 1.87 ± 0.69
- YHSKLFVGGYWLYREDGREY — within error, 0.812 ± 0.24
- YHVDC — within error, -0.13 ± 0.34
- YHVSLLSI — within error, 0.169 ± 0.65
- YIDKG — within error, -0.893 ± 1.9
- YIDSLISLITDSCMNHRDGR — within error, -0.29 ± 1.1
- YILGVRSSYSMFMESQCL — within error, 0.543 ± 0.23
- YILNGVPVKAFFLGYGADYS — within error, -0.979 ± 1.3

For WCMGHNSYYVKEIVIDVLWL, the amyloid nucleation score was “inactive”.
For WGICAVLHLMTIIGLIRVER, the amyloid nucleation score was “inactive”.
With WNSSFLHRLWEGSNLSARCC the amyloid nucleation score was “inactive”.
With WSTFYLFLSLDWKNYT the amyloid nucleation score was “inactive”.
In the case of WVYMANRVEYRRASRNMS, the amyloid nucleation score is reported as “inactive”.
For WWSYRKCRALNRRFQFFSYR, the amyloid nucleation score was “inactive”.
In the case of YATDCLLVSFGTSGECIHRL, the amyloid nucleation score is reported as “inactive”.
In the case of YDHGRWDSTVSGLRDVMLDV, the amyloid nucleation score is reported as “inactive”.
With YENHGISDLSCIFTPYKV the amyloid nucleation score was “inactive”.
